Laboratory results as given in paper PMC10619424.

Target: haloalkane dehalogenase DmmarA from Mycobacterium marinum M (Mycobacterium marinum M)
Experiment: SAXS; SEC-purified DmmarA at 2, 4.5 and 8.7 mg/ml in 50 mM sodium acetate, 10 mM Tris pH 8.5; scattering curves fitted to the crystallographic monomer and dimer (CRYSOL), ab initio model (DAMMIN)

stoichiometry N: 2
Substance: haloalkane dehalogenase DmmarA from Mycobacterium marinum M (enzyme)
